# Results as given in EP3211087A1 (National University Corporation Nagoya University, dated 2017).
# B1: human Cavin-1 (other, UniProt Q6NZI2 1-390, looked up)
# chain: MEDPTLYIVERPLPGYPDAEAPEPSSAGAQAAEEPSGAGSEELIKSDQVNGVLVLSLLDKIIGAVDQIQLTQAQLEERQAEMEGAVQSIQGELSKLGKAHATTSNTVSKLLEKVRKVSVNVKTVRGSLERQAGQIKKLEVNEAELLRRRNFKVMIYQDEVKLPAKLSISKSLKESEALPEKEGEELGEGERPEEDAAALELSSDEAVEVEEVIEESRAERIKRSGLRRVDDFKKAFSKEKMEKTKVRTRENLEKTRLKTKENLEKTRHTLEKRMNKLGTRLVPAERREKLKTSRDKLRKSFTPDHVVYARSKTAVYKVPPFTFHVKKIREGQVEVLKATEMVEVGADDDEGGAERGEAGDLRRGSSPDVHALLEITEESDAVLVDKSDSD
# notes: whole, on cells; Endogenous protein in cell extracts, or full-length cDNA expressed from pCMV-puro in COS-7 cells for IP-WB; also called Cavin-1-WT; pCMVpuro-Cavin-1
# B2: human Caveolin 1 (CAV1) (other, UniProt Q03135 2-178, looked up)
# chain: SGGKYVDSEGHLYTVPIREQGNIYKPNNKAMADELSEKQVYDAHTKEIDLVNRDPKHLNDDVVKIDFEDVIAEPEGTHSFDGIWKASFTTFTVTKYWFYRLLSALFGIPMALIWGIYFAILSFLHIWAVVPCIKSFLIEIQCISRVYSIYVHTVCDPLFEAVGKIFSNVRINLQKEI
# notes: whole, on cells; Endogenous protein in cell extracts, or full-length cDNA expressed from pCMV-puro in COS-7 cells for IP-WB; also called CAV1-WT; pCMVpuro-CAV1
# B3: Cavin-2 (other, human, UniProt O95810 2-425, looked up)
# chain: GEDAAQAEKFQHPGSDMRQEKPSSPSPMPSSTPSPSLNLGNTEEAIRDNSQVNAVTVLTLLDKLVNMLDAVQENQHKMEQRQISLEGSVKGIQNDLTKLSKYQASTSNTVSKLLEKSRKVSAHTRAVKERMDRQCAQVKRLENNHAQLLRRNHFKVLIFQEENEIPASVFVKQPVSGAVEGKEELPDENKSLEETLHTVDLSSDDDLPHDEEALEDSAEEKVEESRAEKIKRSSLKKVDSLKKAFSRQNIEKKMNKLGTKIVSVERREKIKKSLTSNHQKISSGKSSPFKVSPLTFGRKKVREGESHAENETKSEDLPSSEQMPNDQEEESFAEGHSEASLASALVEGEIAEEAAEKATSRGSNSGMDSNIDLTIVEDEEEESVALEQAQKVRYEGSYALTSEEAERSDGDPVQPAVLQVHQTS
# notes: whole, on cells; Detected with anti-Cavin-2 (Abcam) in IP-WB of cell extracts
# How the values were obtained:
# [1] = biological target: T1, human ROR1 (receptor tyrosine kinase-like orphan receptor 1) (human, UniProt Q01973 30-937); assay: IP-WB of octyl glucoside cell extracts, NCI-H1975 and SK-LU-1
# T1 construct: whole, on cells; also called ROR1-WT; endogenous ROR1
# T1 sequence (Q01973 30-937): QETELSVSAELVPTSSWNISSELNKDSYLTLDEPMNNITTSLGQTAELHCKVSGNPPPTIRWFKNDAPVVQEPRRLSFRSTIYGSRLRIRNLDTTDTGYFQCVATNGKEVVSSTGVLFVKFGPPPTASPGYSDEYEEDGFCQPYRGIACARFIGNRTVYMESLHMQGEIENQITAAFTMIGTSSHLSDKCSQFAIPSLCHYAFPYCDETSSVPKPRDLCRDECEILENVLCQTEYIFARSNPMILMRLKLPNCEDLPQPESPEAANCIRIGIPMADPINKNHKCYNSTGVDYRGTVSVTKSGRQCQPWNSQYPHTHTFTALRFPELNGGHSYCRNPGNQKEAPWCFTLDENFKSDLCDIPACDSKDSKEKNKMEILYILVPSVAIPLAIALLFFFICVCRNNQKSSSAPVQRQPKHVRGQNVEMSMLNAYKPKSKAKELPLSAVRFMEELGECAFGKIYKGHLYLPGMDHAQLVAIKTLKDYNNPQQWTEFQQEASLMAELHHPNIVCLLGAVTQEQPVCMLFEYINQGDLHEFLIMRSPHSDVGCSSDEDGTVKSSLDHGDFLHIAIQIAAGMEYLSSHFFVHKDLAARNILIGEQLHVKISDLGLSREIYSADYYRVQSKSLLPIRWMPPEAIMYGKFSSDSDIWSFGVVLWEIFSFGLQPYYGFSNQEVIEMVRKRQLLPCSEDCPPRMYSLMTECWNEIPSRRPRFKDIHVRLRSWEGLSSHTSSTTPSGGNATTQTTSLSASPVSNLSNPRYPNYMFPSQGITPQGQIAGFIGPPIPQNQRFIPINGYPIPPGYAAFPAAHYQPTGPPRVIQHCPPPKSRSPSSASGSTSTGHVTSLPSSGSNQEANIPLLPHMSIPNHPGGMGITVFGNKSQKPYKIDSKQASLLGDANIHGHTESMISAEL
# [2] = biological target: T1, human ROR1 (receptor tyrosine …); assay: legend of FIGS. 4(3) and (4): IP-WB, NCI-H1975 and SK-LU-1
# [3] = biological target: B1; assay: legend of FIG. 4(6): IP-WB
binder,measurement,setting,value
B1,binding result,[1],binds
B2,binding result,[2],binds
same,binding result,[3],binds
B3,binding result,[1],no binding
